In patent US20180155451A1 (published 2018):

T1: FcγRIIa R (human, UniProt P12318 34-217)
T1 construct: extracellular domain; Soluble extracellular domain with C-terminal His tag, expressed in FreeStyle293 cells; also called FcgRIIa R; FcγRIIa type R; not shown: His tag attached to the C terminus
T1 sequence (looked up): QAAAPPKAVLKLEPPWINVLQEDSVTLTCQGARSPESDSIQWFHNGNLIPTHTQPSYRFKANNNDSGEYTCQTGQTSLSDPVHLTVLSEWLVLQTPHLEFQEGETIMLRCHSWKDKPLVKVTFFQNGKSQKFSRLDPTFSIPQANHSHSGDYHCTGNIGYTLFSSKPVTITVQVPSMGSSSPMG


What follows are binders tested against T1, FcγRIIa R (assay: SPR (Biacore), antibody captured via antigen peptide, FcγRIIa R as analyte; homodimerized antibody).
Description: Analysis of interaction between objective antibody and the FcγR was carried out using Biacore T100 (GE Healthcare). HBS-EP+ (GE Healthcare) was used as the running buffer, and the measurement temperature was set to 25° C. Chips produced by immobilizing the antigen peptide by the amine coupling method to a Series S Sencor Chip CM5 (GE Healthcare), or alternatively, chips produced by allowing preliminarily biotinylated antigen peptides to interact with and immobilize onto a Series S Sensor Chip SA (certified) (GE Healthcare) were used. Antibodies of interest were captured onto an antigen peptide-immobilized chip, and allowed to interact to each FcγR diluted with running buffer. To regenerate and repeatedly use the chip, the antibodies captured on the chip were washed off by reacting 10 mM glycine-HCl, pH 1.5.

Row | Binder | Ho/Con_2aR
1 | GpH7-B3 variant K334_14T/GpL16-k0 (antibody, human IgG1, kappa, homodimerized; mutation in both H chains; also called Ho Ab) heavy: not shown light: DIVMTQSPLSLPVTPGEPASISCQASESLVHSNRNTYLHWYLQKPGQSPQLLIYKVSNRFSGVPDRFSGSGSGTDFTLKISRVEAEDVGVYYCSQNTHVPPTFGQGTKVEIERTVAAPSVFIFPPSDEQLKSGTASVVCLLNNFYPREAKVQWKVDNALQSGNSQESVTEQDSKDSTYSLSSTLTLSKADYEKHKVYACEVTHQGLSSPVTKSFNRGEC | 117 % of control (GpH7-B3/GpL16-k0 = 100)
2 | GpH7-B3 variant L328_07I/GpL16-k0 (antibody, human IgG1, kappa, homodimerized; mutation in both H chains; also called Ho Ab) heavy: not shown light: DIVMTQSPLSLPVTPGEPASISCQASESLVHSNRNTYLHWYLQKPGQSPQLLIYKVSNRFSGVPDRFSGSGSGTDFTLKISRVEAEDVGVYYCSQNTHVPPTFGQGTKVEIERTVAAPSVFIFPPSDEQLKSGTASVVCLLNNFYPREAKVQWKVDNALQSGNSQESVTEQDSKDSTYSLSSTLTLSKADYEKHKVYACEVTHQGLSSPVTKSFNRGEC | 140 % of control (GpH7-B3/GpL16-k0 = 100)
3 | GpH7-B3 variant S267_01G/GpL16-k0 (antibody, human IgG1, kappa, homodimerized; mutation in both H chains; also called Ho Ab) heavy: not shown light: DIVMTQSPLSLPVTPGEPASISCQASESLVHSNRNTYLHWYLQKPGQSPQLLIYKVSNRFSGVPDRFSGSGSGTDFTLKISRVEAEDVGVYYCSQNTHVPPTFGQGTKVEIERTVAAPSVFIFPPSDEQLKSGTASVVCLLNNFYPREAKVQWKVDNALQSGNSQESVTEQDSKDSTYSLSSTLTLSKADYEKHKVYACEVTHQGLSSPVTKSFNRGEC | 116 % of control (GpH7-B3/GpL16-k0 = 100)
4 | GpH7-B3 variant L328_06M/GpL16-k0 (antibody, human IgG1, kappa, homodimerized; mutation in both H chains; also called Ho Ab) heavy: not shown light: DIVMTQSPLSLPVTPGEPASISCQASESLVHSNRNTYLHWYLQKPGQSPQLLIYKVSNRFSGVPDRFSGSGSGTDFTLKISRVEAEDVGVYYCSQNTHVPPTFGQGTKVEIERTVAAPSVFIFPPSDEQLKSGTASVVCLLNNFYPREAKVQWKVDNALQSGNSQESVTEQDSKDSTYSLSSTLTLSKADYEKHKVYACEVTHQGLSSPVTKSFNRGEC | 124 % of control (GpH7-B3/GpL16-k0 = 100)
5 | GpH7-B3 variant S267_02A/GpL16-k0 (antibody, human IgG1, kappa, homodimerized; mutation in both H chains; also called Ho Ab) heavy: not shown light: DIVMTQSPLSLPVTPGEPASISCQASESLVHSNRNTYLHWYLQKPGQSPQLLIYKVSNRFSGVPDRFSGSGSGTDFTLKISRVEAEDVGVYYCSQNTHVPPTFGQGTKVEIERTVAAPSVFIFPPSDEQLKSGTASVVCLLNNFYPREAKVQWKVDNALQSGNSQESVTEQDSKDSTYSLSSTLTLSKADYEKHKVYACEVTHQGLSSPVTKSFNRGEC | 160 % of control (GpH7-B3/GpL16-k0 = 100)
6 | GpH7-B3 variant S239_01G/GpL16-k0 (antibody, human IgG1, kappa, homodimerized; mutation in both H chains; also called Ho Ab) heavy: not shown light: DIVMTQSPLSLPVTPGEPASISCQASESLVHSNRNTYLHWYLQKPGQSPQLLIYKVSNRFSGVPDRFSGSGSGTDFTLKISRVEAEDVGVYYCSQNTHVPPTFGQGTKVEIERTVAAPSVFIFPPSDEQLKSGTASVVCLLNNFYPREAKVQWKVDNALQSGNSQESVTEQDSKDSTYSLSSTLTLSKADYEKHKVYACEVTHQGLSSPVTKSFNRGEC | 132 % of control (GpH7-B3/GpL16-k0 = 100)
7 | GpH7-B3 variant S337_14T/GpL16-k0 (antibody, human IgG1, kappa, homodimerized; mutation in both H chains; also called Ho Ab) heavy: not shown light: DIVMTQSPLSLPVTPGEPASISCQASESLVHSNRNTYLHWYLQKPGQSPQLLIYKVSNRFSGVPDRFSGSGSGTDFTLKISRVEAEDVGVYYCSQNTHVPPTFGQGTKVEIERTVAAPSVFIFPPSDEQLKSGTASVVCLLNNFYPREAKVQWKVDNALQSGNSQESVTEQDSKDSTYSLSSTLTLSKADYEKHKVYACEVTHQGLSSPVTKSFNRGEC | 110 % of control (GpH7-B3/GpL16-k0 = 100)
8 | GpH7-B3 variant P238_08L/GpL16-k0 (antibody, human IgG1, kappa, homodimerized; mutation in both H chains; also called Ho Ab) heavy: not shown light: DIVMTQSPLSLPVTPGEPASISCQASESLVHSNRNTYLHWYLQKPGQSPQLLIYKVSNRFSGVPDRFSGSGSGTDFTLKISRVEAEDVGVYYCSQNTHVPPTFGQGTKVEIERTVAAPSVFIFPPSDEQLKSGTASVVCLLNNFYPREAKVQWKVDNALQSGNSQESVTEQDSKDSTYSLSSTLTLSKADYEKHKVYACEVTHQGLSSPVTKSFNRGEC | 148 % of control (GpH7-B3/GpL16-k0 = 100)
9 | GpH7-B3 variant K334_18N/GpL16-k0 (antibody, human IgG1, kappa, homodimerized; mutation in both H chains; also called Ho Ab) heavy: not shown light: DIVMTQSPLSLPVTPGEPASISCQASESLVHSNRNTYLHWYLQKPGQSPQLLIYKVSNRFSGVPDRFSGSGSGTDFTLKISRVEAEDVGVYYCSQNTHVPPTFGQGTKVEIERTVAAPSVFIFPPSDEQLKSGTASVVCLLNNFYPREAKVQWKVDNALQSGNSQESVTEQDSKDSTYSLSSTLTLSKADYEKHKVYACEVTHQGLSSPVTKSFNRGEC | 113 % of control (GpH7-B3/GpL16-k0 = 100)

The remaining lines, values ahead:

Row | Ho/Con_2aR | Binder
10 | 142 % of control (GpH7-B3/GpL16-k0 = 100) | GpH7-B3 variant S239_09D/GpL16-k0 (antibody, human IgG1, kappa, homodimerized; mutation in both H chains; also called Ho Ab; GpH7-B3-06-09D/GpL16-k0) heavy: not shown light: DIVMTQSPLSLPVTPGEPASISCQASESLVHSNRNTYLHWYLQKPGQSPQLLIYKVSNRFSGVPDRFSGSGSGTDFTLKISRVEAEDVGVYYCSQNTHVPPTFGQGTKVEIERTVAAPSVFIFPPSDEQLKSGTASVVCLLNNFYPREAKVQWKVDNALQSGNSQESVTEQDSKDSTYSLSSTLTLSKADYEKHKVYACEVTHQGLSSPVTKSFNRGEC
11 | 112 % of control (GpH7-B3/GpL16-k0 = 100) | GpH7-B3 variant K334_15Y/GpL16-k0 (antibody, human IgG1, kappa, homodimerized; mutation in both H chains; also called Ho Ab) heavy: not shown light: DIVMTQSPLSLPVTPGEPASISCQASESLVHSNRNTYLHWYLQKPGQSPQLLIYKVSNRFSGVPDRFSGSGSGTDFTLKISRVEAEDVGVYYCSQNTHVPPTFGQGTKVEIERTVAAPSVFIFPPSDEQLKSGTASVVCLLNNFYPREAKVQWKVDNALQSGNSQESVTEQDSKDSTYSLSSTLTLSKADYEKHKVYACEVTHQGLSSPVTKSFNRGEC
12 | 111 % of control (GpH7-B3/GpL16-k0 = 100) | GpH7-B3 variant K334_16H/GpL16-k0 (antibody, human IgG1, kappa, homodimerized; mutation in both H chains; also called Ho Ab) heavy: not shown light: DIVMTQSPLSLPVTPGEPASISCQASESLVHSNRNTYLHWYLQKPGQSPQLLIYKVSNRFSGVPDRFSGSGSGTDFTLKISRVEAEDVGVYYCSQNTHVPPTFGQGTKVEIERTVAAPSVFIFPPSDEQLKSGTASVVCLLNNFYPREAKVQWKVDNALQSGNSQESVTEQDSKDSTYSLSSTLTLSKADYEKHKVYACEVTHQGLSSPVTKSFNRGEC
13 | 157 % of control (GpH7-B3/GpL16-k0 = 100) | GpH7-B3 variant L328_15Y/GpL16-k0 (antibody, human IgG1, kappa, homodimerized; mutation in both H chains; also called Ho Ab) heavy: not shown light: DIVMTQSPLSLPVTPGEPASISCQASESLVHSNRNTYLHWYLQKPGQSPQLLIYKVSNRFSGVPDRFSGSGSGTDFTLKISRVEAEDVGVYYCSQNTHVPPTFGQGTKVEIERTVAAPSVFIFPPSDEQLKSGTASVVCLLNNFYPREAKVQWKVDNALQSGNSQESVTEQDSKDSTYSLSSTLTLSKADYEKHKVYACEVTHQGLSSPVTKSFNRGEC
14 | 116 % of control (GpH7-B3/GpL16-k0 = 100) | GpH7-B3 variant L328_03V/GpL16-k0 (antibody, human IgG1, kappa, homodimerized; mutation in both H chains; also called Ho Ab) heavy: not shown light: DIVMTQSPLSLPVTPGEPASISCQASESLVHSNRNTYLHWYLQKPGQSPQLLIYKVSNRFSGVPDRFSGSGSGTDFTLKISRVEAEDVGVYYCSQNTHVPPTFGQGTKVEIERTVAAPSVFIFPPSDEQLKSGTASVVCLLNNFYPREAKVQWKVDNALQSGNSQESVTEQDSKDSTYSLSSTLTLSKADYEKHKVYACEVTHQGLSSPVTKSFNRGEC
15 | 113 % of control (GpH7-B3/GpL16-k0 = 100) | GpH7-B3 variant S267_07I/GpL16-k0 (antibody, human IgG1, kappa, homodimerized; mutation in both H chains; also called Ho Ab) heavy: not shown light: DIVMTQSPLSLPVTPGEPASISCQASESLVHSNRNTYLHWYLQKPGQSPQLLIYKVSNRFSGVPDRFSGSGSGTDFTLKISRVEAEDVGVYYCSQNTHVPPTFGQGTKVEIERTVAAPSVFIFPPSDEQLKSGTASVVCLLNNFYPREAKVQWKVDNALQSGNSQESVTEQDSKDSTYSLSSTLTLSKADYEKHKVYACEVTHQGLSSPVTKSFNRGEC
16 | 145 % of control (GpH7-B3/GpL16-k0 = 100) | GpH7-B3 variant L328_04F/GpL16-k0 (antibody, human IgG1, kappa, homodimerized; mutation in both H chains; also called Ho Ab) heavy: not shown light: DIVMTQSPLSLPVTPGEPASISCQASESLVHSNRNTYLHWYLQKPGQSPQLLIYKVSNRFSGVPDRFSGSGSGTDFTLKISRVEAEDVGVYYCSQNTHVPPTFGQGTKVEIERTVAAPSVFIFPPSDEQLKSGTASVVCLLNNFYPREAKVQWKVDNALQSGNSQESVTEQDSKDSTYSLSSTLTLSKADYEKHKVYACEVTHQGLSSPVTKSFNRGEC
